From US11312773B2, “Anti-PD-L1 antibody” (Fuso Pharmaceutical Industries, Ltd., priority 2016, dated 2022)

What was measured:
[1] = tested on: canine CD80/PD-L1 binding; assay: Canine CD80/PD-L1 binding inhibition ELISA (cCD80-Ig immobilized, cPD-L1-Ig); settings: antibody 0, 2.5, 5 and 10 μg/ml
Procedure: Using the canine PD-1-Ig, PD-L1-Ig and CD80-Ig (described above), anti-PD-L1 antibody was tested for its ability to inhibit canine PD-1/PD-L1 binding and CD80/PD-L1 binding. Briefly, canine PD-1-Ig or CD80-Ig was immobilized on flat-bottom 96-well plates.

[2] = molecular target: T1, canine PD-1/PD-L1 binding (Canis lupus familiaris, UniProt A0A8I3P7C4); assay: Canine PD-1/PD-L1 binding inhibition ELISA (cPD-1-Ig immobilized, biotinylated cPD-L1-Ig); settings: antibody 0, 2.5, 5 and 10 μg/ml
T1 construct: made in house; host or cells: Expi293F
T1 sequence (A0A8I3P7C4 19-237): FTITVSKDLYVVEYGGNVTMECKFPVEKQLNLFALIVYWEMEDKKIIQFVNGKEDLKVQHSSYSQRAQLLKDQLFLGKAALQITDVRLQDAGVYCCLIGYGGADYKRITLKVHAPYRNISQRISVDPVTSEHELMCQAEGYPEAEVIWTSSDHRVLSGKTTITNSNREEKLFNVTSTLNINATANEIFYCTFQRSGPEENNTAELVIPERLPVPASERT
Procedure: Briefly, canine PD-1-Ig (prepared in 2.4 above) was immobilized on flat bottomed 96-well plates and blocked with 1% BSA and 0.05% Tween 20-containing PBS. […] The binding of cPD-L1-Ig to cPD-1-Ig was measured by color reaction using Neutravidin-HRP (Thermo Fisher Scientific) and TMB one component substrate (Bethyl Laboratories).
Briefly, heavy chain and light chain variable region genes were identified from hybridomas producing rat anti-bovine PD-L1 monoclonal antibodies 4G12 and 6G7. Further, the heavy chain and light chain variable region genes of the above rat antibodies were linked to the constant region of heavy chain IgG4 and the constant region of light chain Lambda of a known canine antibody, respectively, to prepare nucleotide sequences, followed by codon optimization (SEQ ID NOS: 9 and 10 (amino acid sequences), SEQ ID NOS: 19 and 20 (nucleotide sequences after codon optimization). Then, synthesis of genes was performed so that NotI restriction enzyme recognition site. KOZAK sequence, chimeric antibody's light chain sequence, poly-A addition signal sequence (PABGH), promoter sequence (PCMV), SacI restriction enzyme recognition site, intron sequence (INRBG), KOZAK sequence, chimeric antibody's heavy chain sequence and XbaI restriction enzyme recognition site would be located in this order. […]

B1: 4G12: rat anti-bovine PD-L1 monoclonal antibody; VL SEQ ID NO: 1, VH SEQ ID NO: 2 (antibody, listed as Rattus norvegicus, V domains shown)
VH: MGWSQIILFLVAAATCVHSQVQLQQSGAELVKPGSSVKISCKASGYTFTSNFMHWVKQQPGNGLEWIGWIYPEYGNTKYNQKFDGKATLTADKSSSTAYMQLSSLTSEDSAVYFCASEEAVISLVYWGQGTLVTVSS
VL: MESQTHVLISLLLSVSGTYGDIAITQSPSSVAVSVGETVTLSCKSSQSLLYSENQKDYLGWYQQKPGQTPKPLIYWATNRHTGVPDRFTGSGSGTDFTLIISSVQAEDLADYYCGQYLVYPFTFGPGTKLELK
- Inhibitory activity against canine CD80/PD-L1 binding [1]: reduced the amounts of binding
- Inhibitory activity against canine PD-1/PD-L1 binding [2]: reduced the amounts of binding
